Experimental findings from patent publication US20090291088A1 (Biogen, published 2009) are described below.

The target in test [1] is T1, human IGF-1R expressed on cells (human, UniProt P08069 31-1367).
T1 construct: On MCF-7 tumor cells or on 3T3/CHO transfectants; precursor is processed into alpha and beta subunits; Signal peptide 1-30 left out as stated; also called wild type IGF-1R; IGF-1R 3T3
Description: flow cytometry, MCF-7 cells. The method, then:
The ability of Fabs to bind to the wild type IGF-1R was determined by flowcytometry using MCF-7 tumor cell line.
MCF-7 cells (Human Breast Adenocarcinoma from NCI) were split 24 hours prior to the setup of the assay to obtain 70% confluent monolayer. Routinely, MCF-7 cell line was maintained within 20 passages. Cells were lifted with cell dissociation buffer (Gibco catalog #13151-014), counted, washed and adjusted to 1×10⁶ cells/ml and one ml of cells were then added to each tube (12×75 mm tube Falcon catalog# 352054). Cells were pelleted and supernatant removed by centrifugation at 1200 rpm for 5 min and 100 μl of diluted antibodies were then added to the cell pellet. Purified Fabs were tested at a starting concentration of either 210 or 60 μg/ml with 1:3 dilutions in FACS buffer, down to 0.001 μg/ml. FACS buffer used throughout the assay was PBS (without Ca++/Mg++) containing 1% BSA (Sigma catalog# A-7906; Sigma-Aldrich Corp. (St. Louis, Mo., USA)) and 0.1% Sodium Azide (Sigma catalog #S2002). […] Samples were allowed to incubate on ice for 1 hour and 15 minutes then were washed with 2 ml FACS buffer and centrifuged at 1200 rpm for 5 minutes at 4° C. The supernatant was aspirated and 100 μl of the secondary detection antibody was added to each corresponding tube in FACS buffer. Samples were then incubated for 30 minutes on ice, in the dark. Cells were washed as described above, then, re-suspended in […] FACS buffer per tube/sample.
Cells were stained for live cell determination with Propidium Iodide staining solution (PI for dead cell exclusion; BD Pharmingen catalog# 51-66211E or 556463; use at 1:500 final in FACS buffer). Samples were run on the FACSCalibur instrument (Becton Dickinson) with 10,000 live events collected per sample.
For orientation: A flow cytometer gives signals particle by particle.

The target of test [2] is T2, human IGF-1R(1-902)-His10 (human, UniProt P08069 31-932).
T2 construct: Cy5-labelled in tr-FRET; also called hIGF-1R-His10; IGF-1R-His
Nature of the test: SPR, Fab over captured IGF-1R-10His. Here is the method:
All surface plasmon resonance (SPR) experiments were performed on a Biacore 3000 set to 25° C. using HBS-EP (Biacore, Cat. No. BR-1001-88) as the running buffer. A biotin-labeled anti-HisTag antibody (biotin-PENTA-His, Qiagen Cat. No. 34440) was immobilized to saturation on a Biacore SA chip (Cat. No. BR-1000-32) surface by injection at 500 nM in HBS-EP buffer. […] Subsequent to IGF-1R injections, flow rates were increased to 20 μL/min. A second, 130 μL injection of anti-IGF-1R antibody or Fab was performed to investigate interactions with the receptor. Each antibody and Fab was serially diluted from 64 nM to 0.5 nM to obtain concentration dependent kinetic binding curves. Each injection series was regenerated using 3×10 μL injections of 10 mM Acetate, pH 4.0, at 20 μL/min. Each curve was double referenced using (1) data obtained from a streptavidin surface devoid of IGF-1R and (2) data from a primary injection of IGF-1R followed by a secondary injection of HBS-EP buffer. The concentration series for each antibody and Fab was fit to the 1:1 binding model provided within the BiaEvaluation software of the manufacturer.
To obtain discrete affinities, Fab fragments of each antibody were generated using papain digestion as described above.

Test [3] concerns the target T3, hIGF-1R-Fc mutant SD015 (H464E) (human, UniProt P08069 31-933).
T3 construct: not shown: C-terminal human IgG1-Fc tag
Description: SPR, Fab over captured SD015. For orientation: SPR reads the build-up and loss of mass on a sensor chip optically.

The target in test [4] is T4, hIGF-1R-Fc mutant SD201 (D248A) (human, UniProt P08069 31-933).
T4 construct: not shown: C-terminal human IgG1-Fc tag
Nature of the test: SPR, Fab over captured mutant.

The target in test [5] is T5, hIGF-1R-Fc mutant SD202 (D250S) (human, UniProt P08069 31-933).
T5 construct: not shown: C-terminal human IgG1-Fc tag
Nature of the test: SPR, Fab over captured mutant.

The target in test [6] is T6, hIGF-1R-Fc mutant SD008 (S257F) (human, UniProt P08069 31-933).
T6 construct: not shown: C-terminal human IgG1-Fc tag
Nature of the test: SPR, Fab over captured SD008. Here is the method:
(§1) Surface plasmon resonance (SPR) experiments were performed on a Biacore 3000 instrument set to 25° C. […] The antibody sensorchip surfaces were prepared by injecting each antibody (diluted 100 μg/mL in 10 mM Acetate, pH 4.0) over EDC/NHS-activated sensorchip surfaces according to the standard protocol of the manufacturer. […] Both hIGF-1R-Fc and mIGF-1R-Fc proteins oligomerize due to the incorporation of two separate homodimeric regions (IGF-1R and IgG1-Fc). […] After, completion of the receptor-Fc loading step, flow rates were elevated to 5 μl/min. […] Dissociation was measured for 7 minutes after the antibody injections were complete. Finally, the flow rate was elevated to 30 μL/min and the chip surfaces were regenerated by 2×10 μL injections of 0.1 M glycine, pH 2.

For test [7], the target named is T7, hIGF-1R-Fc mutant SD012 (E303G) (human, UniProt P08069 31-933).
T7 construct: not shown: C-terminal human IgG1-Fc tag
Description: SPR, Fab over captured SD012. Here is the method: as §1

In test [8] the target is T8, hIGF-1R-Fc mutant SD103 (D461A, V462T) (human, UniProt P08069 31-933).
T8 construct: not shown: C-terminal human IgG1-Fc tag
Nature of the test: SPR, Fab over captured mutant.

Test [9] addresses T9, hIGF-1R-Fc mutant SD102 (E459A, S460A) (human, UniProt P08069 31-933).
T9 construct: not shown: C-terminal human IgG1-Fc tag
Nature of the test: SPR, Fab over captured mutant.

The target in test [10] is T10, hIGF-1R-Fc mutant SD109 (Y482A, R483W) (human, UniProt P08069 31-933).
T10 construct: not shown: C-terminal human IgG1-Fc tag
Description: SPR, Fab over captured mutant.

Test [11] concerns the target T11, hIGF-1R-Fc mutant SD113 (E570A, I571T) (human, UniProt P08069 31-933).
T11 construct: not shown: C-terminal human IgG1-Fc tag
Nature of the test: SPR, Fab over captured mutant.

In test [12] the target is T12, hIGF-1R-Fc mutant SD110 (E533H) (human, UniProt P08069 31-933).
T12 construct: not shown: C-terminal human IgG1-Fc tag
Nature of the test: SPR, Fab over captured mutant.

In test [13] the target is T13, hIGF-1R-Fc mutant SD108 (H480E) (human, UniProt P08069 31-933).
T13 construct: not shown: C-terminal human IgG1-Fc tag
Description: SPR, Fab over captured mutant.

Test [14] concerns the target T14, hIGF-1R-Fc mutant SD104 (H464A) (human, UniProt P08069 31-933).
T14 construct: not shown: C-terminal human IgG1-Fc tag
Nature of the test: SPR, Fab over captured mutant.

The target of test [15] is T3, hIGF-1R-Fc mutant SD015 (H464E). Description: SPR, Fab over captured mutant.
Test [16] has as its target T15, human IGF-1R(1-903)-Fc (human, UniProt P08069 31-933).
T15 construct: Made by Biogen Idec; Multimerises through IGF-1R and Fc; also called hIGF-1R-Fc; IGF-1R-Fc; not shown: C-terminal human IgG1-Fc tag
Description: ELISA on hIGF-1R-Fc, competitor Zenon-labelled αIR3. For orientation: An ELISA detects its analyte on a solid surface through an enzyme-linked reagent.

For test [17], the target named is T15, human IGF-1R(1-903)-Fc. Description: ELISA on hIGF-1R-Fc, competitor biotinylated M14-G11.
Test [18] deals with T16, hIGF-1R-Fc mutant SD203 (N254A) (human, UniProt P08069 31-933).
T16 construct: not shown: C-terminal human IgG1-Fc tag
Description: SPR, antibody over captured mutant. Here is the method: as §1

For test [19], the target named is T17, hIGF-1R-Fc mutant SD207 (G265Y) (human, UniProt P08069 31-933).
T17 construct: not shown: C-terminal human IgG1-Fc tag
Nature of the test: SPR, antibody over captured mutant. Here is the method:
as §1

B1: M14-G11 Fab (Fab, V domains shown)
VH: EVQLLESGGGLVQPGGSLRLSCAASGFTFSNYPMYWVRQAPGKGLEWVSRISSSGGRTVYADSVKGRFTISRDNSKNTLYLQMNSLRAEDTAVYYCARDRWSRSAAEYGLGGYWGQGTLVTVSS
VL: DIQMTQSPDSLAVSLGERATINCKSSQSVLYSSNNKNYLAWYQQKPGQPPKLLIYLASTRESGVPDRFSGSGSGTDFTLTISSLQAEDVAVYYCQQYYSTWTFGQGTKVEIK
notes: Human phage Fab, kappa
As usually defined, the EC50 is the concentration giving half of the maximal effect. Low readings indicate greater potency, high ones weaker potency. By Kd is commonly meant a measure of binding affinity in units of concentration. A higher Kd goes with lower affinity. By koff is commonly meant a measure of how fast the partners let go of each other. The low end stands for slow dissociation, the high end for fast dissociation. In general, kon refers to the rate constant with which the complex forms. Read a low kon as slow association. In turn, B1 had an EC50 in test [1] of 39.8 nM. Moreover, the dissociation constant (Kd) in [2] is 4 nM; in [3], 4 to 6 nM. The same molecule registered an off-rate constant (koff) in test [2] of 0.0012 s⁻¹. In test [2], this molecule yielded a kon of 300000 M⁻¹ s⁻¹. Also, the binding result in test [4] and in test [5] was “no binding (tested: 30 nM)” in each case. Further, the “fold loss in affinity against wild-type” value in [6] and in [7] was around 3 fold each time.

B2: M14-C03 Fab (Fab, V domains shown)
VH: EVQLLESGGGLVQPGGSLRLSCAASGFTFSKYMMSWVRQAPGKGLEWVSYISPSGGLTWYADSVKGRFTISRDNSKNTLYLQMNSLRAEDTAVYYCARDGARGYGMDVWGQGTTVTVSS
VL: DIQMTQSPATLSLSPGERATLSCRASQSVSSYLAWYQQKPGQAPRLLIYDASNRATGIPARFSGSGSGTDFTLTISSLEPEDFAVYYCQQRSNWPPEVTFGPGTKVDIK
notes: Human phage Fab, kappa
As for B2, the EC50 in [1] is 25.4 nM. In addition, binding in test [2] was characterised by a dissociation constant (Kd) of 4.9 nM. In test [2], this molecule gave a dissociation rate constant (koff) of 0.00094 s⁻¹. This molecule also registered an association rate constant (kon) in test [2] of 190000 M⁻¹ s⁻¹. Moreover, the binding result in test [8], in test [9], in test [10], in test [11], in test [12] and in [13] was “no binding (tested: 30 nM)” throughout. Further, the binding result in test [14] and in [15] was “no binding (tested: 30 nM)” throughout.

B3: P1E2 (chimeric antibody) (antibody, human IgG4, V domains shown)
VH: QVQLQQPGAELVKPGASVKLSCKASGYTFTSYWMHWVKQRPGQGLEWIGEINPTYGRSNYNEKFKSKATLTVDKSSSTAYMQLSSLTSEDSAVYYCARLVRLRYFDVWGAGTTVTVSS
VL: DIVMTQAAFSNPVTLGTSASISCRSSKSLLHSNGITYLYWYLQKPGQSPQLLIYQMSNLASGVPDRFSSSGSGTDFTLRISRVEAEDVGVYYCAQNLELPYTFGGGTKLEIK
notes: also called chimeric antibody P1E2
For B3, the “percent competition (relative to self-competition)” value in the test with human IGF-1R(1-903)-Fc [16] and in the test with human IGF-1R(1-903)-Fc [17] was 90 to 100% each time. Moreover, the binding result in test [18] and in test [19] was “no binding (tested: 30 nM)” in each case.
